# T1: human prolactin receptor (PRLR), cell surface-expressed (human, UniProt P16471 25-622)
# T1 sequence: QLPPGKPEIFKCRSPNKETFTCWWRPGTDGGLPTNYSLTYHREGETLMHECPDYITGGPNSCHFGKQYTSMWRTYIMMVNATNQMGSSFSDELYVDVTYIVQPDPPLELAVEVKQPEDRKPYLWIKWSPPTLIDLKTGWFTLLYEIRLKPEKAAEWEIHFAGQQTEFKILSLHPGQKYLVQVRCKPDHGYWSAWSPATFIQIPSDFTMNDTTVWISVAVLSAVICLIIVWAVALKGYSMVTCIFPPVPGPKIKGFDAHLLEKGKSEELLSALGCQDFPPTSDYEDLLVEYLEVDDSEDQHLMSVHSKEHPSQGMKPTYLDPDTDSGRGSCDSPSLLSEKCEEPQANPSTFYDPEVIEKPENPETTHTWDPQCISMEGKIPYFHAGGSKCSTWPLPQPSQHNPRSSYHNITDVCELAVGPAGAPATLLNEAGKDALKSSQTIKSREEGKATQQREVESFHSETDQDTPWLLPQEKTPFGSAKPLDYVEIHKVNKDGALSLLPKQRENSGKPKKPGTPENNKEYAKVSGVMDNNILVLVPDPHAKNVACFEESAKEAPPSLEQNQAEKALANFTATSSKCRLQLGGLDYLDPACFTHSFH
# T2: hPRLR.mmh (soluble monomeric human PRLR) (human)
# T2 construct: soluble monomeric construct
# T2 chain: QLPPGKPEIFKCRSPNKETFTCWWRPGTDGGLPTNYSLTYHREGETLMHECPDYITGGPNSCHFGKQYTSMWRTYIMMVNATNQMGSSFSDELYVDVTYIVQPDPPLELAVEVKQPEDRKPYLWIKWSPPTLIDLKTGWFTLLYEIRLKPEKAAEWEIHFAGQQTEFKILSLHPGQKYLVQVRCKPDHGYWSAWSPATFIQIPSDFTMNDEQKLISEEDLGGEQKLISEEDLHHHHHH
# T3: hPRLR.mFc (soluble dimeric human PRLR) (human)
# T3 construct: dimeric construct
# T3 chain: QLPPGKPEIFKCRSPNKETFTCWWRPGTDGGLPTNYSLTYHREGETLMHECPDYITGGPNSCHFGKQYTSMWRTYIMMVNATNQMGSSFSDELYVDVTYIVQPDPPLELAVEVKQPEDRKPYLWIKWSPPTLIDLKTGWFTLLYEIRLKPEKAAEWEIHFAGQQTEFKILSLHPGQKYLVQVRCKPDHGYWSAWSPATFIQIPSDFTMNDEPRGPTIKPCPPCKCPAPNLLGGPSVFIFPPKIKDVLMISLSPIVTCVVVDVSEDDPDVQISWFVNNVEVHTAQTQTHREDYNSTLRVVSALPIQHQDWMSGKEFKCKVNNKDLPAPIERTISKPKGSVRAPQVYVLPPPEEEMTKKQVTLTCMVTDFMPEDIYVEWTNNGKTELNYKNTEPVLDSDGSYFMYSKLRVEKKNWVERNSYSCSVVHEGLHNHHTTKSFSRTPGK
# T4: mfPRLR.mmh (soluble monomeric macaca fascicularis PRLR) (macaca fascicularis)
# T4 construct: soluble monomeric construct; also called macaca fascicularis (mf) PRLR.mmh
# T4 chain: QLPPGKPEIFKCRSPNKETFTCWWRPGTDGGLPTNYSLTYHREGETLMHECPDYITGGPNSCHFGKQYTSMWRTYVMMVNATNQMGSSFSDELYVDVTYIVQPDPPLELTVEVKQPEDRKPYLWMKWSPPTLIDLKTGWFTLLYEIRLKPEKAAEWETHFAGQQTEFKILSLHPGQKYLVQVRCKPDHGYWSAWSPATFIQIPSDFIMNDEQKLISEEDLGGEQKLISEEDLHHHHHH
# T5: human prolactin receptor (PRLR) on cells (human, UniProt P16471 25-622)
# T5 sequence: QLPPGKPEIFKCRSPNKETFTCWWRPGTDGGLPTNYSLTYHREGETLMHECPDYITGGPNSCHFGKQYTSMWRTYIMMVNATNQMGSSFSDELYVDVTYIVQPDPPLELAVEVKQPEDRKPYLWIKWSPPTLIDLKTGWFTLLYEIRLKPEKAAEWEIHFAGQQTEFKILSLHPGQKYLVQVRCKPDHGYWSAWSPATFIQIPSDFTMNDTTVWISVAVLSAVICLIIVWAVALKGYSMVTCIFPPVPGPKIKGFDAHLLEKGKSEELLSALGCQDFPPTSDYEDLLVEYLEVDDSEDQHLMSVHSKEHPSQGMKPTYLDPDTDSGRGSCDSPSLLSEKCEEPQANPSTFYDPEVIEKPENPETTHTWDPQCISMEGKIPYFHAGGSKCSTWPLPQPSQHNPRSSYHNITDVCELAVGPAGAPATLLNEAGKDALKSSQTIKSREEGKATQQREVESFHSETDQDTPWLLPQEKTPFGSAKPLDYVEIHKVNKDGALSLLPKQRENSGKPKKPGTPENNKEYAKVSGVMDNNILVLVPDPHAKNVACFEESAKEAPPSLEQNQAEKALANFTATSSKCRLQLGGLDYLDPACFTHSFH
# T6: mouse PRLR on HEK293 cells (mouse, UniProt Q08501 20-608)
# T6 construct: whole, on cells; also called mPRLR; HEK293/mPRLR
# T6 sequence (looked up): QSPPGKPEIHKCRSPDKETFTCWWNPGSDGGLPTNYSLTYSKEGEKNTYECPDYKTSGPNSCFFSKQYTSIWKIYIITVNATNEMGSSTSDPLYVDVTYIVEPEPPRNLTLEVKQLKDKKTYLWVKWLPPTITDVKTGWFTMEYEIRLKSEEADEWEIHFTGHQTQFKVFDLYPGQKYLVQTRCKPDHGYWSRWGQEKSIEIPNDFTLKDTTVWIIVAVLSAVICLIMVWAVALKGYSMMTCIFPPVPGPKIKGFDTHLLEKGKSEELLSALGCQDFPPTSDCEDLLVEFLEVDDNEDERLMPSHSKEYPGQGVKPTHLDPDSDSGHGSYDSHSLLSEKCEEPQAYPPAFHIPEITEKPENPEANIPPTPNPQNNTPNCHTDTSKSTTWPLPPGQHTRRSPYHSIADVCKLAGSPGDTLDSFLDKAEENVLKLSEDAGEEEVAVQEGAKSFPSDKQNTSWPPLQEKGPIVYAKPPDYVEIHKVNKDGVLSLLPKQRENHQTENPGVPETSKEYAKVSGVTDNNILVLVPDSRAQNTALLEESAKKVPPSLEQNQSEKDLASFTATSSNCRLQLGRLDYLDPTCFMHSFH
# T7: monkey (macaca fascicularis) PRLR on HEK293 cells (macaca fascicularis, UniProt A0A2K5WXK1 25-619)
# T7 construct: also called mfPRLR; HEK293/mfPRLR
# T7 sequence: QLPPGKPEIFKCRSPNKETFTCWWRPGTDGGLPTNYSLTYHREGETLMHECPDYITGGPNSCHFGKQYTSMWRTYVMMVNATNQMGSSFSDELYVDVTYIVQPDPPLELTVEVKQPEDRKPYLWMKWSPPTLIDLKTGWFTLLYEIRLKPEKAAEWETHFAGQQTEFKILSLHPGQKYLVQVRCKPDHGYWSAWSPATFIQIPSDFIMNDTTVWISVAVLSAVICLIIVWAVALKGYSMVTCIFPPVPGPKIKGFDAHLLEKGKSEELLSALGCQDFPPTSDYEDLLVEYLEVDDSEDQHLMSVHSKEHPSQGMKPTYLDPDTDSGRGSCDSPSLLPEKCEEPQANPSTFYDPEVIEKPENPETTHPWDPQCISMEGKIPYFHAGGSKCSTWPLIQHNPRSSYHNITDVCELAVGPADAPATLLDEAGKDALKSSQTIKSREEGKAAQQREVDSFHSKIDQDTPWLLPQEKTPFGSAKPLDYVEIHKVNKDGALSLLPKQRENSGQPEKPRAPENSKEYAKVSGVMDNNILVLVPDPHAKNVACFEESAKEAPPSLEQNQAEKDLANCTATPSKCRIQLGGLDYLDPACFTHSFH
# Experiments:
# [1] = biological target: T1, human prolactin receptor (PRLR), cell …; assay: cell-based or functional assay
# [2] = biological target: T2, hPRLR.mmh (soluble monomeric human PRLR); assay: SPR, 37C, mAb capture
# Experimental: (§1) Measurements were conducted on a T200 Biacore instrument. Kinetic association (kₐ) and dissociation (kd) rate constants were determined by processing and fitting the data to a 1:1 binding model using Scrubber 2.0 curve fitting software. Binding dissociation equilibrium constants (KD) and dissociative half-lives (t_{1/2}) were calculated from the kinetic rate constants as: KD (M)=kd/kₐ; and […].
# [3] = biological target: T3, hPRLR.mFc (soluble dimeric human PRLR); assay: SPR, 37C, mAb capture
# Experimental: as §1
# [4] = biological target: T4, mfPRLR.mmh (soluble monomeric macaca …); assay: SPR, 37C, mAb capture
# Experimental: as §1
# [5] = biological target: T5, human prolactin receptor (PRLR) on cells; assay: cell-based or functional assay
# [6] = biological target: T5, human prolactin receptor (PRLR) on cells; assay: FACS, HEK293/hPRLR cells; further: test concentration or dose not given here
# [7] = biological target: T6, mouse PRLR on HEK293 cells; assay: FACS, HEK293/mPRLR cells; further: test concentration or dose not given here
# [8] = biological target: T7, monkey (macaca fascicularis) PRLR on …; assay: FACS, HEK293/mfPRLR cells; further: test concentration or dose not given here
# [9] = biological target: T5, human prolactin receptor (PRLR) on cells; assay: FACS, T47D cells (native PRLR); further: test concentration or dose not given here
T½ [2] [min],T½ [3] [min],T½ [4] [min],"% Internalization relative to Control I (alexa488 intensity in intracellular vesicles at 37 C, T47D cells) [5] [%]",FACS Cell Binding (Fold Above Background) [6] [fold above background],FACS Cell Binding (Fold Above Background) [7] [fold above background],FACS Cell Binding (Fold Above Background) [8] [fold above background],FACS Cell Binding (Fold Above Background) [9] [fold above background],Binder,"IC50, cell viability, T47D cells [1] [nM]"
,,,,,,,,"H1H6782P-SMCC-DM1 (antibody, human IgG1, V domains shown, DM1 conjugated through an SMCC linker; attachment residues not stated) VH: EVQLVESGGGLVQPGRSLRLSCAASGFTFDDYAMHWVRQAPGKGLEWVSGIIWNSGHIGYGDSVKGRFTISRDNAKKSLYLQMNSLRAEDTALYYCARDSGRYQSYFDYWGQGTLVTVSS VL: DIQMTQSPSTLSASVGDRVTITCRASHIISSWLAWYQQKPGKAPKVLIFKASSLESGVPSRFSGSGSGTEFTLTISSLQPDDFATYYCQQYNTYSRTFGQGTKVEIK",1
34,105,32,147,32,2,27,34,"H1H6807P (antibody, V domains shown, human IgG1 Fc (H1H)) VH: QVQLVESGGGVVQPGRSLRLSCAASGFTFSDYNMHWVRQAPGKGLEWVAVIWYDGSNKHYADSVKGRFTISRDNSKNTLYLQMNSLRAEDTAVYYCARDGFTIFGMVLDYWGQGTLVTVSS VL: not shown",
1,93,1,145,1,2,25,38,"H1H6797P (antibody, human IgG1, V domains shown, human IgG1 Fc (H1H)) VH: EVQLVESGGGLVQPGGSLRLSCIVSGFTFSGSWMSWVRQLPGKGLEWVANIKEDGSDSYYVDSVEGRFTISRDNAKSSLYLQMNSLRVDDTAVYFCARARTVPLHYWGQGTLVTVSS VL: DIQMTQSPSTLSASVGDRVTITCRASQSINIWLAWYQQKPGKAPKLLIYRASYLESGVPSSFAGGGSGTEFTLTISSLQPDDFGTYYCQHYNSYPFTFGQGTKLEIK",
12,91.3,9.6,137,29,1,18,31,"H1H6966N (antibody, human IgG1, V domains shown, also called H2M6966N) VH: QVQLVQSGAEVQKPGASVKVSCKVSGYTLTALSIHWVRQAPGKGLEWMGNFDPGDGETIHAQKFQGRVTMTGDTSTDTAYMELSSLRSEDTAVYYCVGVTFDYWGQGTLVTVSS VL: EIVMTQSPATLSVSPGERATLSCRASQSVASNLAWYQQKPGQAPRLLLYGASTRATGIPARFSGSGSGTEFTLTISSLQSEDFALYYCQHYNNWPLTFGGGTKVEIK",
4,58,4,147,37,1,24,34,"H1H6790P (antibody, human IgG1, V domains shown, human IgG1 Fc (H1H)) VH: EVQLVESGGGLVQPGGSLRLSCAASGFTFSSYAMTWVRQAPGKGLEWVSAITGSVGNTYYADSVKGRFTISRDNSKNTLYLQMNSLGAEDTAEYYCAKGAGMTTNWYLDLWGRGTLVTVSS VL: DIVMTQSPDSLAVSLGARATINCKSSQSVLYSSNNQNYLTWYQQKPGQPPKLLIKWASTRESGVPDRFSGSGSGTDFTLTISSLQAEDVAVYYCQQYASSPYTFGQGTKLEIK",
5.8,78.7,9,120,29,1,23,33,"H1H6960N (antibody, human IgG1, V domains shown, also called H2M6960N) VH: EVQLVESGGGLVKPGGSLRLSCAASGITFSSYSMNWVRQAPGKGLEWVSSISTRSSLIHYADSVKGRFTISRDNAKNSLYLQMNSLRDEDTAVYYCARWDAAAAFDYWGQGTLVIVSS VL: DIQLTQSPSFLSASVGDRVTITCWASQGISSYLAWYQQKPGKAPKLLIYVASTLQSGVPSRFSGSGSGTEFTLTISSLQPEDFATYFCQQLNSYPLTFGGGTKVEIK",
3,56,3,139,1,1,29,34,"H1H6804P (antibody, human IgG1, V domains shown, human IgG1 Fc (H1H)) VH: QVTLKESGPVLVKPTQTLSLTCTVSGFSLSDAGMGVSWIRQPPGKALEWLAHIFSNDGKSYSTSLKSRLTISKDTSKRQVVLTMTNMDPVDTATYYCARIRTGTYSLYLDYWGQGTLVTVSS VL: DIQMTQSPSSLSASVGDRVTITCRASQSINSYLNWYQQKPGKAPKLLLYFASSLQSGVPSRFSGSGSGTDFTLTISSLQPEDFASYYCQESYSTPWTFGQGTKVEIK",
